T1: amphyphisin SH3 (AMPH_HUMAN), P49418
T1 chain: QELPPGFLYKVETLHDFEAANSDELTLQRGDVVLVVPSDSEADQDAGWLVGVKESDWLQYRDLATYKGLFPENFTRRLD


Key:
[1] = target: T1, amphyphisin SH3 (AMPH_HUMAN), P49418; assay: SPOT array
[2] = target: endophilin SH3 (SH3G2_HUMAN), Q99962; assay: SPOT array

normalised SPOT signal, Boehringer light units (BLU); mean over the file's lines of this peptide [1]	normalised SPOT signal, Boehringer light units (BLU); mean over the file's lines of this peptide [2]	Binder
57.3	474	VLALPGKPPFLTQL [P05771 392-406]
253	6270	VNRPLVRPQKRLSS [Q9BWX5 222-235]
14700	11800	VPPPPARPPPRSAR [Q8WY41 65-79]
21500	24800	VPSLPIRPSRAPSR [O43426 1061-1074]
1410	1160	VMARLSRPERPDLV [Q9HCS7 3-16]
743	177	VMASLRRPKRIIIR [P78527 3728-3741]
37	43.1	VRSRFKRPKPNLAR [Q9HCY0 1434-1447]
2830	455	VRLPFHRPPRAGAW [Q9UKN7 887-900]
8360	7360	VLLPPPRPTRKRSL [Q9P2L7 767-780]
53.9	397	VLDFPRRPPWSYEM [Q96CT5 125-139]
25000	14400	VRRIPTRPPRAPRL [Q9NWD7 62-76]
15.5	539	VRLLIRRPESFGPA [Q92736 2321-2334]
34	0	VSAALRRPGPSLVL [Q9BSQ9 205-218]
25.8	19.5	VPRDLRRPASLIGQ [O60503 967-980]
33.9	41	VQPQLRRPFELLIA [Q96QT6 202-215]
1860	395	VLTALRRPARSSWH [Q8WW71 300-313]
475	303	VLPKFPRPVRTQEQ [Q92543 889-902]
9590	1680	VPMPIARPARQTSR [Q9Y6R4 202-215]
966	13000	VRPPPARPPSGPGL [BAC04982 161-175]
11.9	39.7	VPGDPRRPYPTDLE [Q9NPJ6 168-181]
42.4	101	SLGLPSRPPSQLSG [Q8TBS2 64-78]

normalised SPOT signal, Boehringer light units (BLU); mean over the file's lines of this peptide [1]	normalised SPOT signal, Boehringer light units (BLU); mean over the file's lines of this peptide [2]	Binder
5100	5710	VPPRPPRPPETART [P52849 69-83]
6960	2400	SLLRPWRPLRARGS [Q9NV38 6-19]
33.1	32	SKKGFRRPSEKNQH [P17010 781-794]
60.6	60.4	VNLKLRRPSFRDDI [O00467 301-314]
1.1	5.5	VLGVLRRPLEAPPE [Q03169 136-149]
45.5	1190	VMQSLRRPSSSGSS [O60269 443-456]
1730	592	VPLPPARPPTRDNP [Q13191 775-789]
32.8	233	VLLKLRRPVVGSSE [Q14596 255-268]
768	266	VNVVFRRPLRPADP [Q96FY0 68-81]
2630	13800	VPQKPERPPLPPKP [Q96C88 96-110]
19.8	3.4	VNEGPPKPPTELEP [AAH32298 448-462]
41.5	43.6	VPPGLRRPGPGTLY [P56945 374-387]
216	4660	VPQKPERPPLPPEP [Q9H7F7 96-110]
12.5	385	SKAYPKRPLLGLVL [Q9GZR7 380-393]
9	142	VNRGPKRPKVLQRG [Q9UDR8 470-483]
109	84.7	VQSIINRPRKSPLP [O75970 1239-1252]
43.5	58.9	VLQHLRRPVALQLD [Q9HC29 785-798]
883	961	VRYPISRPRRRSSP [P10915 314-327]
34.8	114	VNIVPKKPPLLDRP [Q96NB9 30-44]
23100	21900	VLPPPPRPPQRRSR [BAC05199 62-76]
71.9	352	VPKPPPKPPSPPAP [P17405 180-194]

Reference: article PMC314469, “Protein Interaction Networks by Proteome Peptide Scanning” (PLoS Biology, 2004)
